Test results from the supplement of paper PMC11316812.
± gives the standard deviation of the averaged measurements.

Tests used:
MCF7 = assay: percentage of EdU-negative (G0-arrested) nuclei per well, 72 h; higher = more G0 arrest; conditions: reference: sequence is the full UniProt precursor, the tested protein was the secreted form or ectodomain
hTERT-HMEC = assay: as above; conditions: reference: sequence is the full UniProt precursor, the tested protein was the secreted form or ectodomain
[1] = protein concentration 0.0095 µM
[2] = protein concentration 0.0225 µM
[3] = protein concentration 0.03125 µM
[4] = protein concentration 0.3125 µM
[5] = protein concentration 0.0165825 µM
[6] = protein concentration 0.165825 µM
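Note: secreted proteins added to cultured cells, EdU pulse at the end, nuclei found by Hoechst imaging, EdU status from nuclear versus surrounding ring intensity ratio, PBS as neutral control.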

Sequence | percentage of EdU-negative (MCF7; [2]) [%] | percentage of EdU-negative (MCF7; protein concentration 0.225 µM) [%] | percentage of EdU-negative (hTERT-HMEC; [2]) [%] | percentage of EdU-negative (hTERT-HMEC; protein concentration 0.225 µM) [%] | also measured
MKFQGPLACLLLALCLGSGEAGPLQSGEESTGTNIGEALGHGLGDALSEGVGKAIGKEAGGAAGSKVSEALGQGTREAVGTGVRQVPGFGVADALGNRVGEAAHALGNTGHEIGRQAEDVIRHGADAVRGSWQGVPGHNGAWETSGGHGIFGSQGGLGGQGQGNPGGLGTPWVHGYPGNSAGSFGMNPQGAPWGQGGNGGPPNFGTNTQGAVAQPGYGSVRASNQNEGCTNPPPSGSGGGSSNSGGGSGSQSGSSGSGSNGDNNNGSSSGGSSSGSSSGGSSGGSSGGSSGNSGGSRGDSGSESSWGSSTGSSSGNHGGSGGGNGHKPGCEKPGNEARGSGESGIQNSETSPGMFNFDTFWKNFKSKLGFINWDAINKNQVPPPSTRALLYFSRLWEDFKQNTPFLNWKAIIEGADASSLQKRAGRDDQNYNYNQHAYPTAYGGKYSVKTPAKGGVSPSSSASRVQPGLLQWVKFW [Q6E0U4] |  |  |  |  | percentage of EdU-negative (MCF7; [1]): 27.8 ± 1.4%; percentage of EdU-negative (MCF7; protein concentration 0.095 µM): 27.7 ± 1.7%; percentage of EdU-negative (hTERT-HMEC; [1]): 4.68 ± 0.29%; percentage of EdU-negative (hTERT-HMEC; protein concentration 0.095 µM): 24.6 ± 4.2%
MKFSPAHYLLPLLPALVLSTRQDYEELEKQLKEVFKERSTILRQLTKTSRELDGIKVNLQSLKNDEQSAKTDVQKLLELGQKQREEMKSLQEALQNQLKETSEKAEKHQATINFLKTEVERKSKMIRDLQNENKSLKNKLLSGNKLCGIHAEESKKIQAQLKELRYGKKDLLFKAQQLTDLEQKLAVAKNELEKAALDRESQMKAMKETVQLCLTSVFRDQPPPPLSLITSNPTRMLLPPRNIASKLPDAAAKSKPQQSASGNNESSQVESTKEGNPSTTACDSQDEGRPCSMKHKESPPSNATAETEPIPQKLQMPPCSECEVKKAPEKPLTSFEGMAAREEKIL [Q86TE4] | 26 ± 0.38 | 30.1 ± 1.1 | 5.34 ± 0.34 | 8.84 ± 1.3 | 
MKFTIVFAGLLGVFLAPALANYNINVNDDNNNAGSGQQSVSVNNEHNVANVDNNNGWDSWNSIWDYGNGFAATRLFQKKTCIVHKMNKEVMPSIQSLDALVKEKKLQGKGPGGPPPKGLMYSVNPNKVDDLSKFGKNIANMCRGIPTYMAEEMQEASLFFYSGTCYTTSVLWIVDISFCGDTVEN [Q9NS71] |  |  |  |  | percentage of EdU-negative (MCF7; [3]): 23 ± 2.2%; percentage of EdU-negative (MCF7; [4]): 25.4 ± 3.5%; percentage of EdU-negative (hTERT-HMEC; [3]): 4.8 ± 0.55%; percentage of EdU-negative (hTERT-HMEC; [4]): 5.56 ± 0.6%
MKFTTLLFLAAVAGALVYAEDASSDSTGADPAQEAGTSKPNEEISGPAEPASPPETTTTAQETSAAAVQGTAKVTSSRQELNPLKSIVEKSILLTEQALAKAGKGMHGGVPGGKQFIENGSEFAQKLLKKFSLLKPWA [Q9GZZ8] | 25.6 ± 1.3 | 24.5 ± 0.39 | 4.93 ± 0.13 | 5.83 ± 0.8 | 
MKGFTATLFLWTLIFPSCSGGGGGKAWPTHVVCSDSGLEVLYQSCDPLQDFGFSVEKCSKQLKSNINIRFGIILREDIKELFLDLALMSQGSSVLNFSYPICEAALPKFSFCGRRKGEQIYYAGPVNNPEFTIPQGEYQVLLELYTEKRSTVACANATIMCS | 28.5 ± 0.69 | 29.008 ± 0.011 | 4.8 ± 0.29 | 6.1 ± 0.31 | 
MKGICSDAILVLATSMWMAFAIDFPLPMASERGQLDKTIVECLKNVNKCWFLSYIKPSEPICGSDQVTYSSDCHLCSKILFEGLNITKLYDGQCENS [P0C7L1] | 23.2 ± 2.9 | 26.1 ± 0.36 | 5.76 ± 1.6 | 7.03 ± 0.23 | 
MKGILVAGITAVLVAAVESLSCVQCNSWEKSCVNSIASECPSHANTSCISSSASSSLETPVRLYQNMFCSAENCSEETHITAFTVHVSAEEHFHFVSQCCQGKECSNTSDALDPPLKNVSSNAECPACYESNGTSCHGKPWKCYEEEQCVFLVAELKNDIESKSLVLKGCSNVSNATCQFLSGENKTLGGVIFRKFECANVNSLTPTSAPTTSHNVGSKASLYLLALASLLLRGLLP [Q6UX82] | 26.8 ± 1.8 | 24 ± 2.7 | 4.63 ± 0.18 | 5.88 ± 0.78 | 
MKGLAAALLVLVCTMALCSCAQVGTNKELCCLVYTSWQIPQKFIVDYSETSPQCPKPGVILLTKRGRQICADPNKKWVQKYISDLKLNA |  |  |  |  | percentage of EdU-negative (MCF7; [5]): 26.2 ± 1.5%; percentage of EdU-negative (MCF7; [6]): 24.6 ± 2.4%; percentage of EdU-negative (hTERT-HMEC; [5]): 5.34 ± 1.1%; percentage of EdU-negative (hTERT-HMEC; [6]): 5.89 ± 1.1%
